Test results published in the supplement of paper PMC10567573.

B1: FBXO3 (parent)
chain: GGFPIIRDQIFRYVHDPECVATTG
B2: CCDC70 (parent)
chain: FSFKVSRWMGLACFRSLAASSPSI

Variants of: B1
Assay: protein stability index of a GFP-peptide fusion (GPS, HEK-293T) (PSI 1-6); higher = more stable
Details: c terminus: a fixed tail appended
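Further: lentivirally expressed fusions sorted by FACS into six bins by GFP to DsRed ratio, PSI derived from sequencing read proportions per bin multiplied by bin number.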

Protein stability index of substitutions, site by site:
I5: R 1.86; F 1.58; H 2.14; C 1.86; A 2.39; M 2.71; K 1.19; G 2.32; D 2.61; Y 2.26; L 1.64; S 2.23; W 1.53; N 2.4; P 1.85; V 1.58; Q 1.59; E 2.64; T 2.28
I6: N 2.34; R 2.13; G 2.23; T 2.76; W 1.82; F 1.46; D 3.56; P 2.35; A 2.57; H 2.32; L 2.16; E 3.52; M 1.46; S 2.44; Y 1.99; Q 2.69; C 1.96; V 1.61; K 2.52
G1: Y 1.55; T 2.74; Q 2.15; H 2.02; I 2.05; F 1.55; P 2.51; C 1.21; D 2.65; R 2.16; W 1.73; L 1.64; V 1.79; S 2.01; N 2.4; K 2.15; E 2.6; A 2.29; M 1.64
P4: D 2.72; R 2.21; I 2.08; T 1.67; V 1.29; L 2.39; Y 2.75; Q 1.75; S 2.03; C 2.23; H 2.02; N 2.15; F 2.3; E 2.93; K 2.54; G 2.33; A 1.66
F3: L 1.94; P 2.76; T 3.17; N 2.78; S 2.59; V 2.38; A 3.13; G 2.55; Y 1.57; D 3.2; I 2.29; M 2.1; C 2.14; E 2.9; H 2.21; K 2.87; Q 2.58; R 2.59; W 2.28
G2: E 1.97; I 2.2; S 1.76; N 2.28; W 2.87; K 2.54; V 2.5; P 2.38; H 1.76; A 1.82; Q 1.25; C 1.51; T 2.19; Y 1.78; L 1.86; F 2.03; R 2.41; D 3.02; M 1.68
R7: A 3.41; T 2.72; Q 3.09; S 2.45; H 2.56; M 1.53; D 3.92; C 2.35; I 1.69; L 1.32; K 2.4; E 3.79; P 2.47; F 1.67; N 2.83; G 2.99

Variants of: B2
Assay: as above
Details: c terminus: a fixed tail appended

Protein stability index, by site and new letter:
R15: W 4.5; Q 5.05; M 3.86; V 3.28; I 2.04; H 3.52; Y 2.87; S 1.7; T 2.79; E 3.26; D 2.71; L 3.13; A 3.76
S16: I 1.98; W 2.79; L 2.13; Q 2.42; C 2.56; H 3.13; A 3.04; Y 3.27; K 2.18; P 3.05; D 2.86; R 3.88; E 4.34; N 3.94; F 2.55; G 3.37
S23: D 3.88; Q 3.59; Y 2.1; V 2.53; L 4.22; F 3.09; H 1.65; T 2.67; N 3.56; K 2.68; C 2.6
A12: P 2.56; D 2.87; Q 3.81; F 2.57; S 2.02; E 2.75; I 3.43; V 1.98; C 3.26; R 1.49; Y 2.87; M 3.25; L 2; H 1.57; K 3.62
A19: V 3.78; L 3.58; W 3.71; M 3.27; S 3.28; H 2.03; N 3.2; P 2.09; C 1.8; R 3.39; D 2.88; G 2.19; Y 3.36; E 3.77; F 1.36; Q 2.32; T 3.93
P22: Q 3.8; R 2.46; N 3.22; Y 2.86; A 1.68; T 3.71; V 2.95; E 3.78; F 2.51; H 1.85; D 2.97; C 2.36; W 3.4; M 3.36; K 2.38
S21: L 3.55; C 2.05; E 3.18; F 3.31; R 1.75; G 2.62; N 2.04; A 1.99; M 3.02; Q 2.23; I 3.37; D 2.8; P 3.96; W 2.85; K 2.57; Y 1.82
S20: T 2.31; I 3.96; P 1.35; W 3.37; H 1.81; A 3.7; F 4.72; R 4.31; M 2.2; K 3.32; D 3.1; L 3.27; Y 2.74; G 2.51; V 2.6; N 2.46; C 3.42
L11: A 3.24; F 3.35; E 1.76; I 3.88; R 4.02; M 3.73; N 2.65; D 2.84; H 5.37; P 2.72; G 3.16; Y 3.04; T 3.12; S 3.51
I24: D 2.72; N 2.33; G 2.36; K 2.12; P 1.41; S 2.06; C 1.94; L 3; M 2.23; A 2.67; W 3.1; F 2.56; Q 2.38; Y 3.49; E 1.44
F14: K 1.93; A 3.51; M 2.21; N 2.56; D 2.84; P 3.6; W 1.7; S 1.61; T 1.31; Q 1.72; V 3.5; L 2; R 4.52; I 1.54; G 3.57
A18: S 2.69; D 2.71; R 2.21; E 2.71; V 2.58; H 2.37; F 2.74; K 4.48; Y 3.5; M 2.78; L 2.9; W 1.96; T 2.82
C13: R 3.4; D 2.05; P 1.82; W 2.35; H 2.36; L 3.57; S 2.66; I 2.56; V 2.52; F 3.96; K 1.46; G 2.27; Y 3.24; T 1.63
L17: V 2.84; R 2.19; T 2.3; N 2.73; K 2.45; M 2.77; G 3.62; Y 2.69; A 1.7; S 1.87; Q 1.83; I 1.86; H 2.29; P 3.88
G10: Y 4.12
